# In the supplement of paper PMC5998384:
# Legend:
# HeLa Kyoto [1] = test: thermal stability score vs G1/S (z-score of summed log2 fold changes over temperatures); higher = more thermally stable than in G1/S
# HeLa Kyoto [2] = test: solubility change mitosis vs G1/S (difference of NP-40 vs SDS log2 ratios) (log2 ratio difference); higher = more soluble in mitosis
# HeLa Kyoto [3] = test: melting temperature (median over replicates), in situ; higher = more thermally stable
# HeLa Kyoto [4] = test: solubility in G1/S (NP-40 vs SDS abundance) (log2 ratio); higher = more soluble; settings: cell cycle stage: G1/S
# [5] = cell cycle stage: early G1 (4.5 h after nocodazole release)
# 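Wherever melting temperature (median over replicates), in situ is given: HeLa Kyoto cells synchronized by double thymidine or nocodazole block, proteins quantified by TMT10plex mass spectrometry, three independent biological replicates.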
# 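Wherever solubility change mitosis vs G1/S (difference of NP-40 vs SDS log2 ratios) is given: synchronized HeLa Kyoto cells (double thymidine block for G1/S, nocodazole release for mitosis), protein amounts in NP-40 versus SDS lysates quantified by mass spectrometry, three biological replicates.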
# 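Wherever solubility in G1/S (NP-40 vs SDS abundance) is given: HeLa Kyoto cells arrested at G1/S by double thymidine block, proteins quantified by TMT10plex mass spectrometry in mild NP-40 versus SDS extracts, three biological replicates.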
# 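Wherever thermal stability score vs G1/S (z-score of summed log2 fold changes over temperatures) is given: synchronized HeLa Kyoto cells, proteins quantified by TMT10plex mass spectrometry, three biological replicates, mitosis taken 0.5 h after nocodazole release, G1/S directly after double thymidine block.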
Sequence,thermal stability score (HeLa Kyoto [1]; [5]),thermal stability score (HeLa Kyoto [1]; cell cycle stage: mitosis),solubility change mitosis (log2) (HeLa Kyoto [2]),melting temperature (HeLa Kyoto [3]; cell cycle stage: G1/S),melting temperature (HeLa Kyoto [3]; cell cycle stage: mitosis),solubility in G1/S (log2) (HeLa Kyoto [4])
MPTGFVAPILCVLLPSPTREAATVASATGDSASERESAAPAAAPTAEAPPPSVVTRPEPQALPSPAIRAPLPDLYPFGTMRGGGFGDRDRDRDRGGFGARGGGGLPPKKFGNPGERLRKKKWDLSELPKFEKNFYVEHPEVARLTPYEVDELRRKKEITVRGGDVCPKPVFAFHHANFPQYVMDVLMDQHFTEPTPIQCQGFPLALSGRDMVGIAQTGSGKTLAYLLPAIVHINHQPYLERGDGPICLVLAPTRELAQQVQQVADDYGKCSRLKSTCIYGGAPKGPQIRDLERGVEICIATPGRLIDFLESGKTNLRRCTYLVLDEADRMLDMGFEPQIRKIVDQIRPDRQTLMWSATWPKEVRQLAEDFLRDYTQINVGNLELSANHNILQIVDVCMESEKDHKLIQLMEEIMAEKENKTIIFVETKRRCDDLTRRMRRDGWPAMCIHGDKSQPERDWVLNEFRSGKAPILIATDVASRGLDVEDVKFVINYDYPNSSEDYVHRIGRTARSTNKGTAYTFFTPGNLKQARELIKVLEEANQAINPKLMQLVDHRGGGGGGGGRSRYRTTSSANNPNLMYQDECDRRLRGVKDGGRRDSASYRDRSETDRAGYANGSGYGSPNSAFGAQAGQYTYGQGTYGAAAYGTSSYTAQEYGAGTYGASSTTSTGRSSQSSSQQFSGIGRSGQQPQPLMSQQFAQPPGATNMIGYMGQTAYQYPPPPPPPPPSRK [DDX17],3.12,5.66,0.16,49.1 °C,49.8 °C,-0.381
MNPSMKQKQEEIKENIKNSSVPRRTLKMIQPSASGSLVGRENELSAGLSKRKHRNDHLTSTTSSPGVIVPESSENKNLGGVTQESFDLMIKENPSSQYWKEVAEKRRKALYEALKENEKLHKEIEQKDNEIARLKKENKELAEVAEHVQYMAELIERLNGEPLDNFESLDNQEFDSEEETVEDSLVEDSEIGTCAEGTVSSSTDAKPCI [GMNN],-7.44,-7.77,-0.0263,57.5 °C,52.7 °C,0.46
MAEGTAEAPLENGGGGDSGAGALERGVAPIKRQYLTTKEQFHQFLEAKGQEKTCRETEVGDPAGNELAEPEAKRIRLEDGQTADGQTEEAAEPGEQLQTQKRARGQNKGRPHVKPTNYDKNRLCPSLIQESAAKCFFGDRCRFLHDVGRYLETKPADLGPRCVLFETFGRCPYGVTCRFAGAHLRPEGQNLVQEELAARGTQPPSIRNGLDKALQQQLRKREVRFERAEQALRRFSQGPTPAAAVPEGTAAEGAPRQENCGAQQVPAGPGTSTPPSSPVRTCGPLTDEDVVRLRPCEKKRLDIRGKLYLAPLTTCGNLPFRRICKRFGADVTCGEMAVCTNLLQGQMSEWALLKRHQCEDIFGVQLEGAFPDTMTKCAELLSRTVEVDFVDINVGCPIDLVYKKGGGCALMNRSTKFQQIVRGMNQVLDVPLTVKIRTGVQERVNLAHRLLPELRDWGVALVTLHGRSREQRYTKLADWQYIEECVQAASPMPLFGNGDILSFEDANRAMQTGVTGIMIARGALLKPWLFTEIKEQRHWDISSSERLDILRDFTNYGLEHWGSDTQGVEKTRRFLLEWLSFLCRYVPVGLLERLPQRINERPPYYLGRDYLETLMASQKAADWIRISEMLLGPVPPSFAFLPKHKANAYK [DUS3L],1.52,2.59,-0.0331,49 °C,48.5 °C,-0.0832
MLDFAIFAVTFLLALVGAVLYLYPASRQAAGIPGITPTEEKDGNLPDIVNSGSLHEFLVNLHERYGPVVSFWFGRRLVVSLGTVDVLKQHINPNKTSDPFETMLKSLLRYQSGGGSVSENHMRKKLYENGVTDSLKSNFALLLKLSEELLDKWLSYPETQHVPLSQHMLGFAMKSVTQMVMGSTFEDDQEVIRFQKNHGTVWSEIGKGFLDGSLDKNMTRKKQYEDALMQLESVLRNIIKERKGRNFSQHIFIDSLVQGNLNDQQILEDSMIFSLASCIITAKLCTWAICFLTTSEEVQKKLYEEINQVFGNGPVTPEKIEQLRYCQHVLCETVRTAKLTPVSAQLQDIEGKIDRFIIPRETLVLYALGVVLQDPNTWPSPHKFDPDRFDDELVMKTFSSLGFSGTQECPELRFAYMVTTVLLSVLVKRLHLLSVEGQVIETKYELVTSSREEAWITVSKRY [CYP20A1],0.229,-1.11,-0.0969,54.4 °C,55.1 °C,-0.178
MAPLLGRKPFPLVKPLPGEEPLFTIPHTQEAFRTREEYEARLERYSERIWTCKSTGSSQLTHKEAWEEEQEVAELLKEEFPAWYEKLVLEMVHHNTASLEKLVDTAWLEIMTKYAVGEECDFEVGKEKMLKVKIVKIHPLEKVDEEATEKKSDGACDSPSSDKENSSQIAQDHQKKETVVKEDEGRRESINDRARRSPRKLPTSLKKGERKWAPPKFLPHKYDVKLQNEDKIISNVPADSLIRTERPPNKEIVRYFIRHNALRAGTGENAPWVVEDELVKKYSLPSKFSDFLLDPYKYMTLNPSTKRKNTGSPDRKPSKKSKTDNSSLSSPLNPKLWCHVHLKKSLSGSPLKVKNSKNSKSPEEHLEEMMKMMSPNKLHTNFHIPKKGPPAKKPGKHSDKPLKAKGRSKGILNGQKSTGNSKSPKKGLKTPKTKMKQMTLLDMAKGTQKMTRAPRNSGGTPRTSSKPHKHLPPAALHLIAYYKENKDREDKRSALSCVISKTARLLSSEDRARLPEELRSLVQKRYELLEHKKRWASMSEEQRKEYLKKKREELKKKLKEKAKERREKEMLERLEKQKRYEDQELTGKNLPAFRLVDTPEGLPNTLFGDVAMVVEFLSCYSGLLLPDAQYPITAVSLMEALSADKGGFLYLNRVLVILLQTLLQDEIAEDYGELGMKLSEIPLTLHSVSELVRLCLRRSDVQEESEGSDTDDNKDSAAFEDNEVQDEFLEKLETSEFFELTSEEKLQILTALCHRILMTYSVQDHMETRQQMSAELWKERLAVLKEENDKKRAEKQKRKEMEAKNKENGKVENGLGKTDRKKEIVKFEPQVDTEAEDMISAVKSRRLLAIQAKKEREIQEREMKVKLERQAEEERIRKHKAAAEKAFQEGIAKAKLVMRRTPIGTDRNHNRYWLFSDEVPGLFIEKGWVHDSIDYRFNHHCKDHTVSGDEDYCPRSKKANLGKNASMNTQHGTATEVAVETTTPKQGQNLWFLCDSQKELDELLNCLHPQGIRESQLKERLEKRYQDIIHSIHLARKPNLGLKSCDGNQELLNFLRSDLIEVATRLQKGGLGYVEETSEFEARVISLEKLKDFGECVIALQASVIKKFLQGFMAPKQKRRKLQSEDSAKTEEVDEEKKMVEEAKVASALEKWKTAIREAQTFSRMHVLLGMLDACIKWDMSAENARCKVCRKKGEDDKLILCDECNKAFHLFCLRPALYEVPDGEWQCPACQPATARRNSRGRNYTEESASEDSEDDESDEEEEEEEEEEEEEDYEVAGLRLRPRKTIRGKHSVIPPAARSGRRPGKKPHSTRRSQPKAPPVDDAEVDELVLQTKRSSRRQSLELQKCEEILHKIVKYRFSWPFREPVTRDEAEDYYDVITHPMDFQTVQNKCSCGSYRSVQEFLTDMKQVFTNAEVYNCRGSHVLSCMVKTEQCLVALLHKHLPGHPYVRRKRKKFPDRLAEDEGDSEPEAVGQSRGRRQKK [BAZ1B],1.09,-0.274,1.24,50.7 °C,51 °C,-2.14
MSGDHLHNDSQIEADFRLNDSHKHKDKHKDREHRHKEHKKEKDREKSKHSNSEHKDSEKKHKEKEKTKHKDGSSEKHKDKHKDRDKEKRKEEKVRASGDAKIKKEKENGFSSPPQIKDEPEDDGYFVPPKEDIKPLKRPRDEDDADYKPKKIKTEDTKKEKKRKLEEEEDGKLKKPKNKDKDKKVPEPDNKKKKPKKEEEQKWKWWEEERYPEGIKWKFLEHKGPVFAPPYEPLPENVKFYYDGKVMKLSPKAEEVATFFAKMLDHEYTTKEIFRKNFFKDWRKEMTNEEKNIITNLSKCDFTQMSQYFKAQTEARKQMSKEEKLKIKEENEKLLKEYGFCIMDNHKERIANFKIEPPGLFRGRGNHPKMGMLKRRIMPEDIIINCSKDAKVPSPPPGHKWKEVRHDNKVTWLVSWTENIQGSIKYIMLNPSSRIKGEKDWQKYETARRLKKCVDKIRNQYREDWKSKEMKVRQRAVALYFIDKLALRAGNEKEEGETADTVGCCSLRVEHINLHPELDGQEYVVEFDFLGKDSIRYYNKVPVEKRVFKNLQLFMENKQPEDDLFDRLNTGILNKHLQDLMEGLTAKVFRTYNASITLQQQLKELTAPDENIPAKILSYNRANRAVAILCNHQRAPPKTFEKSMMNLQTKIDAKKEQLADARRDLKSAKADAKVMKDAKTKKVVESKKKAVQRLEEQLMKLEVQATDREENKQIALGTSKLNYLDPRITVAWCKKWGVPIEKIYNKTQREKFAWAIDMADEDYEF [TOP1],7.82,12,0.531,46.9 °C,49.1 °C,-1.22
MATALSEEELDNEDYYSLLNVRREASSEELKAAYRRLCMLYHPDKHRDPELKSQAERLFNLVHQAYEVLSDPQTRAIYDIYGKRGLEMEGWEVVERRRTPAEIREEFERLQREREERRLQQRTNPKGTISVGVDATDLFDRYDEEYEDVSGSSFPQIEINKMHISQSIEAPLTATDTAILSGSLSTQNGNGGGSINFALRRVTSAKGWGELEFGAGDLQGPLFGLKLFRNLTPRCFVTTNCALQFSSRGIRPGLTTVLARNLDKNTVGYLQWRWGIQSAMNTSIVRDTKTSHFTVALQLGIPHSFALISYQHKFQDDDQTRVKGSLKAGFFGTVVEYGAERKISRHSVLGAAVSVGVPQGVSLKVKLNRASQTYFFPIHLTDQLLPSAMFYATVGPLVVYFAMHRLIIKPYLRAQKEKELEKQRESAATDVLQKKQEAESAVRLMQESVRRIIEAEESRMGLIIVNAWYGKFVNDKSRKSEKVKVIDVTVPLQCLVKDSKLILTEASKAGLPGFYDPCVGEEKNLKVLYQFRGVLHQVMVLDSEALRIPKQSHRIDTDG [DNAJC11],0.0819,-0.993,-0.0355,52.6 °C,52.3 °C,-0.172
MGQREMWRLMSRFNAFKRTNTILHHLRMSKHTDAAEEVLLEKKGCTGVITLNRPKFLNALTLNMIRQIYPQLKKWEQDPETFLIIIKGAGGKAFCAGGDIRVISEAEKAKQKIAPVFFREEYMLNNAVGSCQKPYVALIHGITMGGGVGLSVHGQFRVATEKCLFAMPETAIGLFPDVGGGYFLPRLQGKLGYFLALTGFRLKGRDVYRAGIATHFVDSEKLAMLEEDLLALKSPSKENIASVLENYHTESKIDRDKSFILEEHMDKINSCFSANTVEEIIENLQQDGSSFALEQLKVINKMSPTSLKITLRQLMEGSSKTLQEVLTMEYRLSQACMRGHDFHEGVRAVLIDKDQSPKWKPADLKEVTEEDLNNHFKSLGSSDLKF [HIBCH],0.653,0.967,-0.019,49.7 °C,50.2 °C,0.343
MAVNVYSTSVTSDNLSRHDMLAWINESLQLNLTKIEQLCSGAAYCQFMDMLFPGSIALKKVKFQAKLEHEYIQNFKILQAGFKRMGVDKIIPVDKLVKGKFQDNFEFVQWFKKFFDANYDGKDYDPVAARQGQETAVAPSLVAPALNKPKKPLTSSSAAPQRPISTQRTAAAPKAGPGVVRKNPGVGNGDDEAAELMQQVNVLKLTVEDLEKERDFYFGKLRNIELICQENEGENDPVLQRIVDILYATDEGFVIPDEGGPQEEQEEY [MAPRE1],-0.163,-0.675,0.204,50.8 °C,51.2 °C,0.394
MPKLQGFEFWSRTLRGARHVVAPMVDQSELAWRLLSRRHGAQLCYTPMLHAQVFVRDANYRKENLYCEVCPEDRPLIVQFCANDPEVFVQAALLAQDYCDAIDLNLGCPQMIAKRGHYGAFLQDEWDLLQRMILLAHEKLSVPVTCKIRVFPEIDKTVRYAQMLEKAGCQLLTVHGRTKEQKGPLSGAASWEHIKAVRKAVAIPVFANGNIQCLQDVERCLRDTGVQGVMSAEGNLHNPALFEGRSPAVWELAEEYLDIVREHPCPLSYVRAHLFKLWHHTLQVHQELREELAKVKTLEGIAAVSQELKLRCQEEISRQEGAKPTGDLPFHWICQPYIRPGPREGSKEKAGARSKRALEEEEGGTEVLSKNKQKKQLRNPHKTFDPSLKPKYAKCDQCGNPKGNRCVFSLCRGCCKKRASKETADCPGHGLLFKTKLEKSLAWKEAQPELQEPQPAAPGTPGGFSEVMGSALA [DUS1L],0.994,1.71,-0.169,47.3 °C,48.9 °C,0.086
